Test results taken from the supplement of paper PMC7877785.
± gives the uncertainty stated by the source.

Experiment: self-splicing fitness, log relative to wild type (ln ratio); higher = more splicing; Tetrahymena group I intron in knt gene, E. coli kanamycin selection, DiMSum; sequences stand for … in CUCUCU…GGAGGGAAAAGUUAUCAGGCAUGCACCUGGUAGCUAGUCUUUAAACCAAUAGAUUGCAUCGGUUUAAAAGGCAAGACCGUCAAAUUGCGGGAAAGGGGUCAACAGCCGUUCAGUACCAAGUCUCAGGGGAAACUUUGAGAUGGCCUUGCAAAGGGUAUGGUAAUAAGCUGACGGACAUGGUCCUAACCACGCAGCCAAGUCCUAAGUCAACAGAUCUUCUGUUGAUAUGGAUGCAGUUCACAGACUAAAUGUCGGUCGGGGAAGAUGUAUUCUUCUCAUAAGAUAUAGUCGGACCUCUCCUUAAUGGGAGCUAGCGGAUGAAGUGAUGCAACACUGGAGCCGCUGGGAACUAAUUUGUAUGCGAAAGUAUAUUGAUUAGUUUUGGAGUACUCGUGGUCG
How it was run: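 Fitness was computed with DiMSum as the error-weighted combination of replicate fold changes, kanamycin versus none, each normalised to wild type. The library randomised all eight intron nucleotides of the P1ex region, with the intron placed in the knt kanamycin-resistance gene on pET-22b(+) in E. coli BL21(DE3). Six replicate transformations were grown overnight at 37°C or 30°C on LB agar with or without 25 μg/mL kanamycin, plus 100 μg/mL carbenicillin, 50 μM IPTG and 0.2% rhamnose. Pooled colonies were amplicon-sequenced on an Illumina HiSeq 2500.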

| Sequence | self-splicing fitness (ln) (30 °C) | self-splicing fitness (ln) (37 °C) |
| --- | --- | --- |
| AAUCAGCAAUAUUACGACAG | -1.31 ± 0.083 | -0.761 ± 0.1 |
| CGUCAGCAAUAUUACGUCUU | -2.3 ± 0.14 | -0.743 ± 0.11 |
| UCGGAGCAAUAUUACGGUUU | – | -1.87 ± 0.34 |
| AGUGAGCAAUAUUACGCGCA | -2.29 ± 0.2 | -2.38 ± 0.2 |
| UCGUAGCAAUAUUACGGCAA | -2.52 ± 0.36 | -0.888 ± 0.27 |
| CCGAAGCAAUAUUACGUUGC | -3.51 ± 0.21 | -2.66 ± 0.22 |
| CGAAAGCAAUAUUACGAAAA | -2.38 ± 0.29 | -1.32 ± 0.23 |
| UGCGAGCAAUAUUACGCAUU | -5.15 ± 0.34 | -3.1 ± 0.23 |
| ACGAAGCAAUAUUACGUGUG | -2.16 ± 0.054 | -0.817 ± 0.063 |
| AGUUAGCAAUAUUACGCUUC | -2.8 ± 0.18 | – |
| UAGUAGCAAUAUUACGAAUG | -2.77 ± 0.16 | -0.412 ± 0.13 |
| AGGUAGCAAUAUUACGAAAU | -2.048 ± 0.018 | -1.19 ± 0.035 |
| UGCCAGCAAUAUUACGUCGG | -4.72 ± 0.41 | -2.68 ± 0.25 |
| ACGAAGCAAUAUUACGAAGC | -3.6 ± 0.27 | -2.61 ± 0.3 |
| ACGAAGCAAUAUUACGCCCC | -0.521 ± 0.21 | -2.24 ± 0.39 |
| UCGAAGCAAUAUUACGUGCG | -1.07 ± 0.086 | -0.299 ± 0.1 |
| GGAGAGCAAUAUUACGUCAU | -2.38 ± 0.31 | -2.61 ± 0.33 |
| ACUUAGCAAUAUUACGGCAU | -1.01 ± 0.071 | -0.0593 ± 0.088 |
| UAUUAGCAAUAUUACGUUUU | – | -0.0777 ± 0.32 |
| AUACAGCAAUAUUACGAAGA | -3.16 ± 0.2 | -2.04 ± 0.17 |
| UCGCAGCAAUAUUACGGCCC | – | -2.41 ± 0.41 |
| CCGCAGCAAUAUUACGUAGA | -3.07 ± 0.17 | -1.37 ± 0.12 |

| Sequence | self-splicing fitness (ln) (30 °C) | self-splicing fitness (ln) (37 °C) |
| --- | --- | --- |
| CGGUAGCAAUAUUACGCGAU | -2.23 ± 0.35 | -2.41 ± 0.44 |
| ACGAAGCAAUAUUACGUGAA | -2.43 ± 0.089 | -1.64 ± 0.13 |
| GGUAAGCAAUAUUACGCCCA | -1.68 ± 0.23 | -1.01 ± 0.27 |
| AUCUAGCAAUAUUACGGUAU | -1.54 ± 0.1 | -1.19 ± 0.13 |
| CUACAGCAAUAUUACGAUUC | -4.31 ± 0.43 | -1.6 ± 0.24 |
| UCUUAGCAAUAUUACGGACC | – | -1.91 ± 0.28 |
| UUUUAGCAAUAUUACGAUAC | -3.18 ± 0.45 | – |
| GCCUAGCAAUAUUACGAUCG | -2.05 ± 0.15 | -1.36 ± 0.18 |
| AACAAGCAAUAUUACGAAUC | -3.22 ± 0.17 | -2.24 ± 0.13 |
| GCCAAGCAAUAUUACGGCCG | -1.48 ± 0.23 | -2.11 ± 0.46 |
| UCCGAGCAAUAUUACGCAAA | -3.59 ± 0.33 | -2.51 ± 0.31 |
| UCACAGCAAUAUUACGGCUU | -3.43 ± 0.22 | -1.85 ± 0.17 |
| AGGUAGCAAUAUUACGCAAU | -1.959 ± 0.017 | -1.03 ± 0.034 |
| GCCCAGCAAUAUUACGGUAU | -0.47 ± 0.055 | -0.0153 ± 0.068 |
| GGUCAGCAAUAUUACGAGUU | -1.38 ± 0.068 | -0.17 ± 0.071 |
| AUUAAGCAAUAUUACGCACA | -0.525 ± 0.12 | -0.202 ± 0.13 |
| CGGGAGCAAUAUUACGGAGG | -3.27 ± 0.15 | -3.12 ± 0.3 |
| AACGAGCAAUAUUACGACGA | -2.08 ± 0.17 | -0.282 ± 0.14 |
| UCUGAGCAAUAUUACGCACC | -3.59 ± 0.45 | – |
| CACAAGCAAUAUUACGUCUC | -3.1 ± 0.25 | -2.5 ± 0.22 |
| ACGCAGCAAUAUUACGCCGG | -2 ± 0.11 | -0.692 ± 0.15 |
| GGUAAGCAAUAUUACGGUGC | -1.14 ± 0.15 | -0.983 ± 0.26 |
